Measured values from patent publication US20160264674A1 (ADURO BIOTECH HOLDINGS EUROPE B V, published 2016).
One block for each binder: values may come before it.

Legend:
[1] = target: T1, FLAG-tagged human APRIL (human, UniProt O75888 105-250, limits assumed); assay: FLAG-APRIL ELISA after 10 min at 65 °C, antibody at 3.16 µg/ml
T1 construct: also called FLAG-tagged APRIL; FLAG-APRIL; not shown: FLAG tag
T1 sequence (looked up): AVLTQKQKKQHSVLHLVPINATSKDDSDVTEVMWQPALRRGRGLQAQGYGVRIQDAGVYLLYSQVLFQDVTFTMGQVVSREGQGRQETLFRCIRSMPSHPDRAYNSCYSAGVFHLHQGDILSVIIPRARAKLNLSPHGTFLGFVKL
Protocol: (§1) The plasmids encoding the VH and VL constructs were mixed in a 1:3 ratio (4 μg in total) and transiently expressed by transfection into HEK293T human embryonic kidney cells (HEK293T/17, ATCC-CRL-11268), using Lipofectamine 2000 transfection reagent (Invitrogen) following the manufacturer's instructions. Cell supernatants were harvested after 5 days and tested for expression of antibody and binding to APRIL using an enzyme-linked immuno assay (ELISA). In these ELISAs, all incubation steps were followed by a wash step with PBST (PBS with 0.01% Tween 20). Maxisorb 96-wells plates (Nunc) were coated with 0.5 μg/ml anti-FLAG (Sigma) or anti-IgG4 (Jackson laboratories) and incubated overnight at 4° C. Subsequently the anti-FLAG coated 96-wells plates were incubated with FLAG-tagged human APRIL for 1 hour at room temperature. Next, supernatants and dilutions thereof were incubated for 1 hour, which was followed by an incubation of 1 hour with mouse anti-human IgG HRP-conjugate (Southern Biotechnology).
(§2) To determine the effect of humanization on the stability of the antibodies, humanized antibodies were exposed to a range of temperatures for 10 minutes. Purified antibodies were diluted to 3.16 μg/ml and dilutions thereof in PBS. Next, these solutions were exposed to 65° C. or 70° C. and residual binding after heat treatment of the antibodies was measured using the FLAG-tagged APRIL ELISA assay as described before (see Table 6).
(§3) In addition, the stability of the substituted humanized antibodies was improved as determined using thermostability studies as described in Example 3 (see Table 9).

[2] = target: T1, FLAG-tagged human APRIL; assay: competition ELISA: antibody premixed with FLAG-tagged APRIL, added to coated Fc-BCMA, anti-FLAG HRP
Protocol: A subset of humanized antibodies described above was selected for further analyses. Again, plasmids encoding the VH and VL constructs were mixed in a 1:3 ratio (32 μg) and transiently expressed by transfection into (8*10⁶) HEK293T human embryonic kidney cells (HEK293T), using Lipofectamine 2000 transfection reagent (Invitrogen) according to the manufacturer's instructions. Supernatants were harvested (10 ml) and antibodies were purified using MabSelect Sure Protein A resin according to the manufacturer's instructions (GE Healthcare). Buffer was exchanged for PBS using Zeba desalting columns (Thermo Scientific). The concentration of purified antibodies was determined based on OD280 (Nanodrop ND-1000). The binding of the purified antibodies to APRIL was established using the above described APRIL ELISA. The blocking capability of the humanized antibodies with BCMA and TACI receptors, was tested in a competition ELISA. In these ELISAs, all incubation steps were followed by a wash step with PBST (PBS with 0.01% Tween 20). Maxisorb 96-wells plates (Nunc) were coated with 0.5 μg/ml Fc-BCMA (R&D Systems) or Fc-TACI (R&D Systems) and incubated overnight at 4° C. Next, humanized antibodies and dilutions thereof were incubated, premixed with FLAG-tagged APRIL, for 1 hour, which was followed by an incubation of 1 hour with anti-FLAG HRP-conjugate (Sigma). Immunoreactivity was visualized with 100 μl TMB Stabilized Chromagen (Invitrogen). Reactions were stopped with 100 μl 0.5 M H2504 and absorbances were measured at 450 and 620 nm. Calculated EC₅₀ and IC₅₀ representing the concentration at which 50% of the total binding signal or blocking is observed are represented in Table 5.
The antibodies were tested for binding, blockade, and stability as described before.

[3] = target: T1, FLAG-tagged human APRIL; assay: ELISA: FLAG-tagged human APRIL captured on anti-FLAG plate, purified antibody titrated
[4] = target: T1, FLAG-tagged human APRIL; assay: FLAG-APRIL ELISA after 10 min at 70 °C, antibody at 0.316 µg/ml
[5] = target: T1, FLAG-tagged human APRIL; assay: FLAG-APRIL ELISA after 10 min at 65 °C, antibody at 0.316 µg/ml
Protocol: as §1, §2, §3

[6] = target: T1, FLAG-tagged human APRIL; assay: FLAG-APRIL ELISA after 10 min at 70 °C, antibody at 3.16 µg/ml
[7] = target: T1, FLAG-tagged human APRIL; assay: FLAG-APRIL ELISA after 10 min at 65 °C, antibody at 1 µg/ml
Protocol: as §1, §2, §3

[8] = target: T1, FLAG-tagged human APRIL; assay: FLAG-APRIL ELISA after 10 min at 70 °C, antibody at 1 µg/ml
[9] = target: T1, FLAG-tagged human APRIL; assay: ELISA on FLAG-tagged human APRIL captured by anti-FLAG
Protocol: as §1
Immunoreactivity was visualized with 100 μl TMB Stabilized Chromagen (Invitrogen). Reactions were stopped with 100 μl 0.5 M H2504 and absorbances were measured at 450 and 620 nm.

binding result [9]: no binding
B4: VH13.VL11 (combination of VH13 with VL11) (antibody, human IgG4, V domains shown)
VH: QVQLVQSGAEVKKPGASVKVSCKASGYTFTSYVMHWVRQAPGQGLEWMGYINPYNDAPKYNEKFKGRVTMTRDTSTSTVYMELSSLRSEDTAVYYCARGLGYALYYAMDYWGQGTMVTVSS
VL: DIVMTQSQKFMPTSVGDRVSVTCKASQNVGNNVAWYQQKPGQSPKALIYSASNRDSGVPDRFTGSGSGTDFTLTITNVQSEDLAEYFCQQYNIYPFTFGAGTKLELK
notes: Human IgG4 (S241P) / human kappa; Member of the group 'combinations of VH11-VH14 with VL10-VL14'

binding result [9]: no binding
B5: VH13.VL14 (combination of VH13 with VL14) (antibody, human IgG4, V domains shown)
VH: QVQLVQSGAEVKKPGASVKVSCKASGYTFTSYVMHWVRQAPGQGLEWMGYINPYNDAPKYNEKFKGRVTMTRDTSTSTVYMELSSLRSEDTAVYYCARGLGYALYYAMDYWGQGTMVTVSS
VL: DILMTQSQKIMPTSVGDRVSVTCKASQNVGNNVAWYQQKPGQSPKALIYSASNRDSGVPDRFTGSGSGTDFTLTITNVQSEDLAEYFCQQYNIYPFTFGAGTKLDLK
notes: as for B4

binding result [9]: no binding
B6: VH12.VL14 (combination of VH12 with VL14) (antibody, human IgG4, V domains shown)
VH: QVQLVQSGAEVKKPGASVKVSCKASGYTFTSYVMHWVRQAPGQGLEWMGYINPYNDAPKYNEKFKGRVTMTRDTSISTAYMELSRLRSDDTAVYYCARGLGYALYYAMDYWGQGTTVTVSS
VL: DILMTQSQKIMPTSVGDRVSVTCKASQNVGNNVAWYQQKPGQSPKALIYSASNRDSGVPDRFTGSGSGTDFTLTITNVQSEDLAEYFCQQYNIYPFTFGAGTKLDLK
notes: as for B4

binding result [9]: no binding
B8: VH11.VL11 (combination of VH11 with VL11) (antibody, human IgG4, V domains shown)
VH: QVQLVQSGAEVKKPGASVKVSCKASGYTFTSYVMHWVRQAPGQRLEWMGYINPYNDAPKYNEKFKGRVTITRDTSASTAYMELSSLRSEDTAVYYCARGLGYALYYAMDYWGQGTTVTVSS
VL: DIVMTQSQKFMPTSVGDRVSVTCKASQNVGNNVAWYQQKPGQSPKALIYSASNRDSGVPDRFTGSGSGTDFTLTITNVQSEDLAEYFCQQYNIYPFTFGAGTKLELK
notes: as for B4

binding result [9]: no binding
B9: VH12.VL11 (combination of VH12 with VL11) (antibody, human IgG4, V domains shown)
VH: QVQLVQSGAEVKKPGASVKVSCKASGYTFTSYVMHWVRQAPGQGLEWMGYINPYNDAPKYNEKFKGRVTMTRDTSISTAYMELSRLRSDDTAVYYCARGLGYALYYAMDYWGQGTTVTVSS
VL: DIVMTQSQKFMPTSVGDRVSVTCKASQNVGNNVAWYQQKPGQSPKALIYSASNRDSGVPDRFTGSGSGTDFTLTITNVQSEDLAEYFCQQYNIYPFTFGAGTKLELK
notes: as for B4

binding result [9]: no binding
B11: VH11.VL14 (combination of VH11 with VL14) (antibody, human IgG4, V domains shown)
VH: QVQLVQSGAEVKKPGASVKVSCKASGYTFTSYVMHWVRQAPGQRLEWMGYINPYNDAPKYNEKFKGRVTITRDTSASTAYMELSSLRSEDTAVYYCARGLGYALYYAMDYWGQGTTVTVSS
VL: DILMTQSQKIMPTSVGDRVSVTCKASQNVGNNVAWYQQKPGQSPKALIYSASNRDSGVPDRFTGSGSGTDFTLTITNVQSEDLAEYFCQQYNIYPFTFGAGTKLDLK
notes: as for B4

The remaining lines, values behind:

B1: VH14_1C.VL15 (antibody, human IgG4, V domains shown)
VH: QVQLVQSGAEVKKPGASVKVSCKASGYTFTSYVMHWVRQAPGQGLEWMGYINPYNDAPKYNEKFKGRVTITSDTSASTAYMELSSLRSDDTAVYYCARGLGYALYYAMDYWGQGTTVTVSS
VL: DIVMTQSPSTLSASVGDRVTITCKASQNVGNNVAWYQQKPGKAPKLLISSASNRDSGVPSRFSGSGSGTEFTLTISSLQPDDFATYFCQQYNIYPFTFGQGTKLEIK
notes: VH14_1 with M70I; Rest is human IgG4 (S241P, Kabat) and human kappa; also called 14_1C.15
% residual binding after heat treatment (room temperature = 100%) [1]: 86.3%
IC50 [2]: 5.26 nM
EC50 [3]: 7.04 nM
% residual binding after heat treatment (room temperature = 100%) [4]: 59.1%
% residual binding after heat treatment (room temperature = 100%) [5]: 59.1%
% residual binding after heat treatment (room temperature = 100%) [6]: 99.4%
% residual binding after heat treatment (room temperature = 100%) [7]: 44.7%
% residual binding after heat treatment (room temperature = 100%) [8]: 43.8%

B2: VH14.VL11 (combination of VH14 with VL11) (antibody, human IgG4, V domains shown)
VH: QVQLVQSGAEVKKPGASVKVSCKASGYTFTSYVMHWVRQAPGQGLEWMGYINPYNDAPKYNEKFKGRVTMTRDTSASTAYMELSSLRSDDTAVYYCARGLGYALYYAMDYWGQGTTVTVSS
VL: DIVMTQSQKFMPTSVGDRVSVTCKASQNVGNNVAWYQQKPGQSPKALIYSASNRDSGVPDRFTGSGSGTDFTLTITNVQSEDLAEYFCQQYNIYPFTFGAGTKLELK
notes: as for B4
binding result [9]: no binding

B3: VH14.VL14 (combination of VH14 with VL14) (antibody, human IgG4, V domains shown)
VH: QVQLVQSGAEVKKPGASVKVSCKASGYTFTSYVMHWVRQAPGQGLEWMGYINPYNDAPKYNEKFKGRVTMTRDTSASTAYMELSSLRSDDTAVYYCARGLGYALYYAMDYWGQGTTVTVSS
VL: DILMTQSQKIMPTSVGDRVSVTCKASQNVGNNVAWYQQKPGQSPKALIYSASNRDSGVPDRFTGSGSGTDFTLTITNVQSEDLAEYFCQQYNIYPFTFGAGTKLDLK
notes: as for B4
binding result [9]: no binding

B7: VH14_1D.VL15 (antibody, human IgG4, V domains shown)
VH: QVQLVQSGAEVKKPGASVKVSCKASGYTFTSYVMHWVRQAPGQGLEWMGYINPYNDAPKYNEKFKGRVTMTSDKSASTAYMELSSLRSDDTAVYYCARGLGYALYYAMDYWGQGTTVTVSS
VL: DIVMTQSPSTLSASVGDRVTITCKASQNVGNNVAWYQQKPGKAPKLLISSASNRDSGVPSRFSGSGSGTEFTLTISSLQPDDFATYFCQQYNIYPFTFGQGTKLEIK
notes: VH14_1 with T74K; Rest is human IgG4 (S241P, Kabat) and human kappa; also called 14_1D.15
% residual binding after heat treatment (room temperature = 100%) [1]: 75.3%
IC50 [2]: 0.96 nM
EC50 [3]: 1.95 nM
% residual binding after heat treatment (room temperature = 100%) [4]: 45.6%
% residual binding after heat treatment (room temperature = 100%) [5]: 49.4%
% residual binding after heat treatment (room temperature = 100%) [6]: 84.3%
% residual binding after heat treatment (room temperature = 100%) [7]: 39.8%
% residual binding after heat treatment (room temperature = 100%) [8]: 32.7%

B10: VH14_1E.VL15 (antibody, human IgG4, V domains shown)
VH: EVQLVQSGAEVKKPGASVKVSCKASGYTFTSYVMHWVRQAPGQGLEWMGYINPYNDAPKYNEKFKGRVTMTSDTSASTAYMELSSLRSDDTAVYYCARGLGYALYYAMDYWGQGTTVTVSS
VL: DIVMTQSPSTLSASVGDRVTITCKASQNVGNNVAWYQQKPGKAPKLLISSASNRDSGVPSRFSGSGSGTEFTLTISSLQPDDFATYFCQQYNIYPFTFGQGTKLEIK
notes: VH14_1 with Q1E; Rest is human IgG4 (S241P, Kabat) and human kappa; also called 14_1E.15
% residual binding after heat treatment (room temperature = 100%) [1]: 82.3%
IC50 [2]: 1.74 nM
EC50 [3]: 2.67 nM
% residual binding after heat treatment (room temperature = 100%) [4]: 43.3%
% residual binding after heat treatment (room temperature = 100%) [5]: 52%
% residual binding after heat treatment (room temperature = 100%) [6]: 78.8%
% residual binding after heat treatment (room temperature = 100%) [7]: 39.7%
% residual binding after heat treatment (room temperature = 100%) [8]: 28%
